In patent US8076300B2, “FGF2-binding peptides and uses thereof” (Tecnogen S.p.A., priority 2006, dated 2011):
Ends that are not written are not given here.

B1: sCterm-PTX3: C-terminal fragment PTX3(179-381) fused to the leader sequence for secretion PTX3(1-17) (protein)
chain: CETAILFPMRSKKIFGSVHPVRPMRLESFSACIWVKATDVLNKTILFSYGTKRNPYEIQLYLSYQSIVFVVGGEENKLVAEAMVSLGRWTHLCGTWNSEEGLTSLWVNGELAATTVEMATGHIVPEGGILQIGQEKNGCCVGGGFDETLAFSGRLTGFNIWDSVLSNEEIRETGGAESCHIRGNIVGWGVTEIQPHGGAQYVS
B2: Cterm-PTX3: recombinant 6×His-tagged C-terminal fragment of PTX3 from E. coli (protein)
chain: CETAILFPMRSKKIFGSVHPVRPMRLESFSACIWVKATDVLNKTILFSYGTKRNPYEIQLYLSYQSIVFVVGGEENKLVAEAMVSLGRWTHLCGTWNSEEGLTSLWVNGELAATTVEMATGHIVPEGGILQIGQEKNGCCVGGGFDETLAFSGRLTGFNIWDSVLSNEEIRETGGAESCHIRGNIVGWGVTEIQPHGGAQYVSHHHHHH

Legend:
GM7373 cells = test: Cell proliferation assay, endothelial GM7373 cells; type: cell-based, bovine; conditions: for inhibition of mitogenic activity exerted by FGF2 / inhibition of FGF2 mitogenic activity by conditioned medium of infected MAE cells: FGF2 0.55 nM; for inhibition of mitogenic activity exerted by FGF2: peptides 66 μM, PTX3 220 nM; for inhibition of FGF2 mitogenic activity by conditioned medium of infected MAE cells: 24 h
Method: Cell proliferation assay on endothelial cells was performed as described^22. Briefly, GM7373 or MAE cells were seeded in 96-well dishes at 75,000 cells/cm^2 or 25,000 cells/cm^2, respectively. After 16 h, cells were incubated in fresh medium containing 0.4% FCS plus FGF2 (0.55 nM) in the absence or in the presence of different antagonists. After 24 or 48 h, respectively, cells were trypsinized and counted in a Burker chamber.

FGF2 [1] = target: T1, FGF2 (Homo sapiens, UniProt P09038); test: Solid phase binding assay, FGF2 binding to immobilized synthetic PTX3 peptides; design: made in house; host or cells: E. coli; conditions: peptides 200 μg/well, FGF2 80 nM
Method: (§1) ELISA microplates were incubated for 16 hours at 4° C. with 100 μl/well of 100 mM NaHCO3, pH 9.6 (coating buffer) containing FGF2 (270 nM). Then, wells were overcoated for 2 hours at room temperature with 5% dry milk in coating buffer. […] Then, wells were sequentially incubated for 1 hour at 37° C. with a rabbit polyclonal anti-PTX3 antibody (1:2000 dilution) that recognizes both PTX3 fragments with similar efficiency in Western blot and ELISA, an anti-rabbit biotinylated antibody (1:2000), and 100 μl of streptavidin-horseredish peroxidase (1:5000, Amersham) for 1 hour at room temperature. Then, 100 μl/well of the chromogen substrate 2,29-azinobis(3-ethylbenzthiazolinesulfonic acid) were added. Absorbance values were read at 405 nm in an automatic ELISA reader. In some experiments, 100-μl aliquots of PBS containing biotin-labeled PTX3 (bPTX3) (22 nM) were incubated for 30 minutes at 37° C. onto FGF2-coated wells with or without competitors. Then, wells were washed, and the amount of bound bPTX3 was evaluated as described^17. Alternatively, synthetic PTX3 peptides were immobilized on ELISA microplate wells (200 μg/well) as described above. Then, FGF2 (80 nM) was added and FGF2 bound to immobilized peptides was assessed by 1 hour incubation at 37° C. with a rabbit polyclonal anti-FGF2 antibody (1:7000) followed by immunocomplex detection as described above.
Target sequence in this assay (P09038 134-288): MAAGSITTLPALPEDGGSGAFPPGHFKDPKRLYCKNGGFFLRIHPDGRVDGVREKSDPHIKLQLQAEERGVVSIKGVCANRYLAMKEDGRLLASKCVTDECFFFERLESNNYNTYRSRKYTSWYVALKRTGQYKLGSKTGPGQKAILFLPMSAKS

FGF2 [2] = target: T1, FGF2; test: BIAcore binding assay, FGF2 binding to PTX3 immobilized to a sensorchip; design: made in house; host or cells: FGF2: E. coli; PTX3: Chinese hamster ovary cells; conditions: for inhibition of FGF2 binding to PTX3 immobilized to a BIAcore sensorchip / IC50: FGF2 0.8 μM; for inhibition of FGF2 binding to PTX3 immobilized to a BIAcore sensorchip: increasing peptide concentrations; for IC50: antagonist in mobile phase, read-out: ID50, inhibition of FGF2 binding to the PTX3 surface
Method: A BIAcore X apparatus (BIAcore Inc, Piscataway, N.J.) was used. Surface plasmon resonance was exploited to measure changes in refractive index caused by the ability of FGF2 to bind to PTX3 immobilized to a BIAcore sensorchip. To this purpose, PTX3 (2.2 μM) was allowed to react with a flow cell of a CM4 sensorchip that was previously activated with 50 μl of a mixture of 0.2 M N-ethyl-N′-(3-dimethylaminopropyl)-carbodiimide hydrochloride and 0.05 M N-hydroxysuccinimide. These experimental conditions allowed the immobilization of 5,000 resonance units (RUs), corresponding to approximately 0.1 pmoles of PTX3. Similar results were obtained for immobilization of gelatin, here used as a negative control and for blank subtraction. Increasing concentrations of FGF2 with or without synthetic PTX3 peptides were then injected in dilution buffer (PBS plus 0.005% surfactant P20, 5.0 μg/mL CaCl2 and MgCl2) over the PTX3 surface for 4 minutes (to allow their association with immobilized PTX3) and then washed until dissociation was observed.
Target sequence in this assay (P09038 134-288): as above

FGF2 [3] = target: T1, FGF2; conditions: cited from earlier work
Target sequence in this assay (P09038 143-288): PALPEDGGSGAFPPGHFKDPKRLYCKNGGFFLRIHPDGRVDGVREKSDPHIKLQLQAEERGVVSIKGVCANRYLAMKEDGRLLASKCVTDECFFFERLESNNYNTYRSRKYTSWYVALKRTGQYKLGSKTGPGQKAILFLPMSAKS

chick embryo CAM = test: Chicken embryo chorioallantoic membrane (CAM) assay, FGF2-induced neovascularization; type: in vivo; conditions: for macroscopic vessels converging towards the implant: FGF2 16 pmoles/embryo, with or without 3.0 nmoles of peptide, 72 hours
Method: Alginate beads (5 μl) containing vehicle or 16 pmoles of FGF2 with or without synthetic PTX3 peptides were prepared as described 24 and placed on top of the CAM of fertilized White Leghorn chicken eggs at day 11 of incubation (10 eggs per experimental group). After 72 hours, blood vessels converging towards the implant were counted by two observers in a double-blind fashion under a stereomicroscope (STEMI-SR, x2/0.12; Zeiss).

MAE cells = test: Cell proliferation assay, retrovirus infected MAE cells stimulated with FGF2; type: cell-based, murine; conditions: retroviral overexpression in MAE cells, FGF2 0.55 nM, 48 h
From the text: The cDNAs encoding for human PTX3 and for the enhanced green fluorescent protein (EGFP) were obtained as described^17. The cDNAs encoding for the N-terminal fragment PTX3(1-178) (Nterm-PTX3) and the C-terminal fragment PTX3(179-381) fused to the leader sequence for secretion PTX3(1-17) (sCterm-PTX3) were generated from pLX-PTX3^17 by PCR and standard cloning techniques. All cDNAs were cloned in the pBABE retroviral vector thus generating pBABE-PTX3, pBABE-Nterm-PTX3, pBABE-sCterm-PTX3, and pBABE-EGFP that were used to transfect the EcoPack2-293 packaging cells in the presence of Lipofectamin 17. Transduced cells were selected with puromycin (1 μg/ml, Sigma) for 2 weeks. Clones with a viral titer higher than […] were used for further experimentation. Confluent cultures of MAE cells were then incubated for 24 hours with the conditioned medium from pBABE-PTX3, pBABE-Nterm-PTX3, PBABE-sCterm-PTX3, or pBABE-EGFP packaging cells in the presence of polybrene (8 μg/ml, Sigma). Infected cell populations were selected for 7 days with puromycin. […] To assess the levels of transgene protein expression and release by infected cells, cell cultures were grown under serum-free conditions for 2 days. […]
Cell proliferation assay on endothelial cells was performed as described^22. […] After 24 or 48 h, respectively, cells were trypsinized and counted in a Burker chamber.

FGF2/PTX3 interaction = target: T2, FGF2/PTX3 interaction (Homo sapiens, UniProt P09038+P26022); test: Solid phase binding assay, biotinylated PTX3 (bPTX3) binding to immobilized FGF2 with competitors; conditions: bPTX3 22 nM, competitor 10 fold-molar excess (220 nM)
T2 construct: biotinylated PTX3 (bPTX3, 22 nM) in the absence or in the presence of a 10 fold-molar excess of full length PTX3; made in house; host or cells: FGF2: E. coli; PTX3: Chinese hamster ovary cells
T2 sequence (P09038 134-288): as the sequence (P09038 134-288) above
T2 sequence (P26022 18-381): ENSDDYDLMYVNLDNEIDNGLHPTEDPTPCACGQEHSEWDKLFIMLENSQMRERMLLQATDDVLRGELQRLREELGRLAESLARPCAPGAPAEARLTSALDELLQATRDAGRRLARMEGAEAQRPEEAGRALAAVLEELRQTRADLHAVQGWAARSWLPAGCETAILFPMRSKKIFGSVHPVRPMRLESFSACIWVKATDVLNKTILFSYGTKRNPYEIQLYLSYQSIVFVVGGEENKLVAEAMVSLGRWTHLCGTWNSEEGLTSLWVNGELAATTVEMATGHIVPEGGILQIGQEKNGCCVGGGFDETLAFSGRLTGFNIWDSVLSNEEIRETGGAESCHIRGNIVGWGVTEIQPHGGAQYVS
Method: ELISA microplates were incubated for 16 hours at 4° C. with 100 μl/well of 100 mM NaHCO3, pH 9.6 (coating buffer) containing FGF2 (270 nM). Then, wells were overcoated for 2 hours at room temperature with 5% dry milk in coating buffer. […] Then, 100 μl/well of the chromogen substrate 2,29-azinobis(3-ethylbenzthiazolinesulfonic acid) were added. Absorbance values were read at 405 nm in an automatic ELISA reader. In some experiments, 100-μl aliquots of PBS containing biotin-labeled PTX3 (bPTX3) (22 nM) were incubated for 30 minutes at 37° C. onto FGF2-coated wells with or without competitors. Then, wells were washed, and the amount of bound bPTX3 was evaluated as described^17. Alternatively, synthetic PTX3 peptides were immobilized on ELISA microplate wells (200 μg/well) as described above. Then, FGF2 (80 nM) was added and FGF2 bound to immobilized peptides was assessed by 1 hour incubation at 37° C. with a rabbit polyclonal anti-FGF2 antibody (1:7000) followed by immunocomplex detection as described above.

FGF2 [4] = target: T1, FGF2; test: Solid phase binding assay, PTX3 proteins on FGF2-coated wells; design: made in house; host or cells: E. coli; conditions: proteins at 44 nM, 30 minutes at 37° C.
Method: as §1
Target sequence in this assay (P09038 134-288): as the sequence (P09038 134-288) above

| Molecule | inhibition of mitogenic activity exerted by FGF2 (GM7373 cells) | binding of free FGF2 to immobilized peptide or PTX3 (FGF2 [1]) | inhibition of FGF2 binding to PTX3 immobilized to a BIAcore sensorchip (FGF2 [2]) | other results |
| --- | --- | --- | --- | --- |
| APAEARLTSALDELLQATRDAGRRLA [PTX3(107-132)] | ineffective | limited interaction | no inhibitory effect |  |
| ARPCA [PTX3(100-104)] | inhibits |  | significant binding to FGF2 |  |
| ARPCAPGAPAE [PTX3(100-110)] |  |  | did not prevent the binding |  |
| CRP: classical short-pentraxin C-reactive protein |  |  |  | FGF2 binding (FGF2 [3]): inefficient FGF2 binders |
| DKLFIMLENSQMRERMLLQATDDVLRGEL [PTX3(57-85)] | ineffective | not | no inhibitory effect |  |
| DNEIDNGLHPTEDPTPCDCGQEHSEWDKLF [PTX3(31-60)] | ineffective | not | no inhibitory effect |  |
| EGLRGELRGSREAELLRQAARAPACPLPE [scrambled PTX3(82-110), reference compound] |  |  |  | IC50 (FGF2 [2]): > 3000 µM |
| ESLARPCA [PTX3(97-104)] |  |  | did not prevent the binding |  |
| ESLARPCAPGA [PTX3(97-107)] |  |  | significant binding to FGF2 |  |
| ESLARPCAPGAPAE [PTX3(97-110)] | inhibits | binds | preventing its interaction with PTX3 immobilized to a BIAcore sensorchip | inhibition in the angiogenic response triggered by FGF2 (chick embryo CAM; 80 nmoles of peptide, FGF2 16 pmoles): 50% |
| FGF2: Human recombinant FGF2 expressed in E. coli; heparin-binding growth factor, the angiogenic stimulus |  |  |  | macroscopic vessels converging towards the implant (chick embryo CAM): 44±7 vessels/embryo |
| PTX3: Human recombinant PTX3 (swiss-prot P26022) expressed in Chinese hamster ovary cells; long-pentraxin | inhibit | binds |  | capacity of infected cells to proliferate in response to exogenous FGF2 (MAE cells): significant decrease; inhibition of FGF2 mitogenic activity by conditioned medium of infected MAE cells (GM7373 cells): significant inhibition; prevention of bPTX3 binding to immobilized FGF2 (FGF2/PTX3 interaction): prevents the capacity of bPTX3 to bind immobilized FGF2; prevention of bPTX3 binding to immobilized FGF2 (FGF2/PTX3 interaction; listed as full length PTX3): prevented the binding; binding to FGF2 immobilized to non-tissue culture plastic (FGF2 [4]): showed the capacity to bind FGF2; FGF2 bound at the end of the injection phase (FGF2 [2]; FGF2 0.8 μM over immobilized PTX3): 350-400 RU; kinetic dissociation constant (koff) of FGF2/PTX3 interaction (FGF2 [2]; FGF2 0.1 to 1.1 μM over immobilized PTX3): 6e-05 s⁻¹ |
| RGELQRLREELGRLA [PTX3(82-96)] | not | without interacting | ineffective | effect on angiogenic response triggered by FGF2 (chick embryo CAM; FGF2 16 pmoles): no effect |
| RGELQRLREELGRLAESLAR [PTX3(82-101)] | not | without interacting | ineffective |  |
| RGELQRLREELGRLAESLARPCAPGAPAE [PTX3(82-110)] | inhibit | binds |  | IC50 (GM7373 cells; dose-response, read-out: ID50, FGF2-antagonist activity on GM7373 cell proliferation): 30 µM; macroscopic vessels converging towards the implant (chick embryo CAM): 28±5 vessels/embryo; IC50 (FGF2 [2]): 30 µM; potency relative to free full length PTX3 (FGF2 [2]; inhibition of FGF2 binding to PTX3 surface): 30 times lower |
| B1 |  |  |  | capacity of infected cells to proliferate in response to exogenous FGF2 (MAE cells): No inhibition; inhibition of FGF2 mitogenic activity by conditioned medium of infected MAE cells (GM7373 cells): ineffective |
| B2 |  |  |  | binding to FGF2 immobilized to non-tissue culture plastic (FGF2 [4]): No interaction |
